Data: patent US6891028 (CEDARS SINAI MEDICAL CENTER, dated 2005)

Target: the molecule itself
Assay: anti-FLAG immunoblot of cell lysates, reducing (~105 kDa) against non-reducing (~215 kDa) SDS-PAGE
Procedure: Transfection and Immunoblotting. CHO-TRVb cells were maintained in F12-nutrient mixture (Gibco-BRL) supplemented with 5% fetal bovine serum. An amino terminal FLAG-tagged TfR2-α cDNA was subcloned into pcDNA3 (Invitrogen, Carlsbad, Calif.). This plasmid (100 μg) was transfected into CHO-TRVb cells using Lipofectin (Gibco-BRL). For transient expression, cells were harvested 48 h after the transfection. We also isolated a stably expressing clone using G418 (200 μg/ml) selection and a standard limiting dilution method. The protein expression was confirmed by immunoblotting using anti-FLAG (M5) antibody
Tf-binding to the TfR2-α Transfected Cells. To analyze the function of TfR2-α, we stably transfected CHO-TRVb cells, which lack functional TfR, with FLAG-tagged TfR2-α. FIGS. 6A, 6B and 6C show the expression and functional analysis of TfR2-α protein. In FIG. 6A, Tf-binding to the cell surface was examined in neomycin resistant control CHO-TRVb cells (left panels), FLAG-tagged TfR2-α stably transfected cells (middle) and TRVb-1,TfR stably transfected cells (right). The cells were incubated with 5 μg/ml of biotinylated human holo-Tf in MEM a media for 30 min on ice. After washing with PBS, the cells were incubated with streptavidin-PE, and analyzed by flow cytometry. […] After transferring to a PVDF membrane, FLAG-fusion proteins were detected by immunoblotting. […]

B1: FLAG-tagged TfR2-α (transferrin receptor 2, α form), expressed on transfected CHO-TRVb cells (receptor)
chain: MERLWGLFQRAQQLSPRSSQTVYQRVEGPRKGHLEEEEEDGEEGAETLAHFCPMELRGPEPLGSRPRQPNLIPWAAAGRRAAPYLVLTALLIFTGAFLLGYVAFRGSCQACGDSVLVVSEDVNYEPDLDFHQGRLYWSDLQAMFLQFLGEGRLEDTIRQTSLRERVAGSAGMAALTQDIRAALSRQKLDHVWTDTHYVGLQFPDPAHPNTLHWVDEAGKVGEQLPLEDPDVYCPYSAIGNVTGELVYAHYGRPEDLQDLRARGVDPVGRLLLVRVGVISFAQKVTNAQDFGAQGVLIYPEPADFSQDPPKPSLSSQQAVYGHVHLGTGDPYTPGFPSFNQTQFPPVASSGLPSIPAQPISADIASRLLRKLKGPVAPQEWQGSLLGSPYHLGPGPRLRLVVNNHRTSTPINNIFGCIEGRSEPDHYVVIGAQRDAWGPGAAKSAVGTAILLELVRTFSSMVSNGFRPRRSLLFISWDGGDFGSVGSTEWLEGYLSVLHLKAVVYVSLDNAVLGDDKFHAKTSPLLTSLIESVLKQVDSPNHSGQTLYEQVVFTNPSWDAEVIRPLPMDSSAYSFTAFVGVPAVEFSFMEDDQAYPFLHTKEDTYENLHKVLQGRLPAVAQAVAQLAGQLLIRLSHDRLLPLDFGRYGDVVLRHIGNLNEFSGDLKARGLTLQWVYSARGDYIRAAEKLRQEIYSSEERDERLTRMYNVRIMRVEFYFLSQYVSPADSPFRHIFMGRGDHTLGALLDHLRLLRSNSSGTPGATSSTGFQESRFRRQLALLTWTLQGAANALSGDVWNIDNNF
notes: The text describes TfR2-α as residues 1-801 (cytoplasmic 1-80, transmembrane 81-104, extracellular 105-801); Expressed from pcDNA3 in TfR-deficient CHO-TRVb cells, both stably and transiently; A disulfide-linked dimer is inferred from the non-reducing immunoblot; also called TfR2 cells; TfR2-α cells; not shown: amino terminal FLAG tag
binding result: binds
